Experimental data reported in patent publication US20180230200A1 (CITY OF HOPE, published 2018).

T1: UL128 expressed from MVA in BHK-21 cells (human cytomegalovirus, UniProt P16837 28-171)
T1 construct: whole, on cells
T1 sequence: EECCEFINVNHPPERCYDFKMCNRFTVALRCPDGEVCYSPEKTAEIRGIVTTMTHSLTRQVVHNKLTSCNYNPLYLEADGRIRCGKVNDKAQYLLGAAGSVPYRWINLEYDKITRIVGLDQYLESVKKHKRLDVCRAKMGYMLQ

B1: 12E2 (antibody, V domains shown)
VH: EVKLVESGGGLVQPGGSLKLSCATSGFTFSDYYMFWVRQTPEKKLEWVAYISNGGGSTYYPDTVKGRFTISRDNDKNTLYLQMSRLKSDDTALYYCVRPKRDFQYLYAMDYWGQGTSVTVSS
VL: DIVLTQSPASLAVSLGQRATISCRASKSVSTSGYSYMHWYQQKPGQSPKLLIYLASNLESGVPARFSGSGSGTDFTLNIHPVEDEDAATYYCQHSRELPWTFGGGTKLEIK
notes: also called NAb 12E2
B2: 1B2 (antibody, V domains shown)
VH: EVQLVESGGVLVKPGGSLKLSCAASGFTFSDYYMYWVRQTPEKRLEWVATISDDGNYTNYPDSVKGRFTISRDNAKNNLYLQMSSLKSEDTAMYYCARGWLLPVFAYWGQGTLVTVSA
VL: DIVLTQSPATLSVTPGDSVSLSCRASQSIGNNLHWYQQKSHESPRLLIKYTSQSISGIPSRFSGSGSGTDFTLNINSVETEDFGVYFCQQSNRWPWTFGGGTKLEIK
notes: also called NAb 1B2
B3: 4A3 (antibody, V domains shown)
VH: QVQLQQPGPELVRPGASVKLSCKASGYTFTIYWMNWVKQRPGQGLEWIGMIDPSDSETHYNQMFKDKATLTVDKSSSTAYMQLSSLTSEDSAVYYCASSGTGAYWGQGTLLTVSA
VL: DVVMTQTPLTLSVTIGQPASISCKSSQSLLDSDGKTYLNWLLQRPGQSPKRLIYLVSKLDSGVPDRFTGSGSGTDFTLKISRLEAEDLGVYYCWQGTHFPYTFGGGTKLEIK
notes: also called NAb 4A3

Tests used:
[1] = molecular target: T2, gH/gL/UL128/UL130/UL131A pentamer complex expressed from MVA-PC in BHK-21 cells (human cytomegalovirus, UniProt P12824 24-743; P16832 31-278; P16837 28-171; P16772 1-214; F5HET4 19-129); assay: FC competition, MVA-PC BHK-21; unlabelled row Ab; competitor: biotinylated 12E2
T2 construct: whole, on cells

[2] = molecular target: T2, gH/gL/UL128/UL130/UL131A pentamer …; assay: FC competition, MVA-PC BHK-21; unlabelled row Ab; competitor: biotinylated 54E11
[3] = molecular target: gH/gL/UL128/UL130/UL131A pentamer complex (PC) of HCMV strain TB40/E virus (human cytomegalovirus strain TB40/E); assay: cell-based or functional assay
[4] = molecular target: gH/gL/UL128/UL130/UL131A pentamer complex (PC) of HCMV strain TR virus (human cytomegalovirus strain TR); assay: cell-based or functional assay
[5] = molecular target: T2, gH/gL/UL128/UL130/UL131A pentamer …; assay: FC, biotinylated NAb titrated on MVA-PC-infected BHK-21 (cell surface PC)
[6] = molecular target: T2, gH/gL/UL128/UL130/UL131A pentamer …; assay: FC competition, MVA-PC BHK-21; unlabelled row Ab; competitor: biotinylated 13B5
[7] = molecular target: T3, gH/gL/UL128/UL130 co-expressed from MVA in BHK-21 cells (human cytomegalovirus, UniProt P12824 24-743; P16832 31-278; P16837 28-171; P16772 1-214); assay: intracellular FC, MVA-infected BHK-21
T3 construct: whole, on cells
Experimental: (§1) NAb subunit specificity was evaluated by staining BHK-21 cells infected with different MVA recombinants. One or more vectors were used to co-infect BHK-21 at an MOI of 5. […] Four hours post infection cells were fixed and permeabilized using Cytofix/Cytoperm solution (BD Biosciences). NAbs (1 mg/ml) were diluted 1:500 in perm/wash buffer (BD) and added to the cells for 1 hour at 4° C. […] Cells were washed again and resuspended in PBS/0.1% BSA. Fifteen thousand events were collected using the Gallios Flow Cytometer (Beckman Coulter, Miami, Fla., USA) and analyzed with FlowJo Software (Tree Star, Ashland, Oreg., USA). Uninfected cells and cells infected with MVA-Venus were used as controls. GFP expression was analyzed for confirming MVA infection since all the constructs contain a GFP expression cassette (36, 62).
(§2) In order to determine the antigen specificity of the vaccine-derived NAbs, intracellular flow cytometry (FC) staining of permeabilized BHK-21 cells infected with MVA expressing single subunits or combinations of two or more subunits of the PC was evaluated.

[8] = molecular target: T4, UL130 expressed from MVA in BHK-21 cells (human cytomegalovirus, UniProt P16772 1-214); assay: intracellular FC, MVA-infected BHK-21
T4 construct: whole, on cells
Experimental: as §1, §2

[9] = molecular target: T5, UL128/UL131A co-expressed from MVA in BHK-21 cells (human cytomegalovirus, UniProt P16837 28-171; F5HET4 19-129); assay: intracellular FC, MVA-infected BHK-21
T5 construct: whole, on cells
Experimental: as §1, §2

[10] = molecular target: T1, UL128 expressed from MVA in BHK-21 cells; assay: intracellular FC, MVA-infected BHK-21
Experimental: as §1, §2

[11] = molecular target: T6, gH/gL/UL128/UL131A co-expressed from MVA in BHK-21 cells (human cytomegalovirus, UniProt P12824 24-743; P16832 31-278; P16837 28-171; F5HET4 19-129); assay: intracellular FC, MVA-infected BHK-21
T6 construct: whole, on cells
Experimental: as §1, §2

[12] = molecular target: T7, gH/gL/UL130/UL131A co-expressed from MVA in BHK-21 cells (human cytomegalovirus, UniProt P12824 24-743; P16832 31-278; P16772 1-214; F5HET4 19-129); assay: intracellular FC, MVA-infected BHK-21
T7 construct: whole, on cells
Experimental: as §1, §2

[13] = molecular target: T8, gH/gL/UL131A co-expressed from MVA in BHK-21 cells (human cytomegalovirus, UniProt P12824 24-743; P16832 31-278; F5HET4 19-129); assay: intracellular FC, MVA-infected BHK-21
T8 construct: whole, on cells
Experimental: as §1, §2

[14] = molecular target: T9, UL130/UL131A co-expressed from MVA in BHK-21 cells (human cytomegalovirus, UniProt P16772 1-214; F5HET4 19-129); assay: intracellular FC, MVA-infected BHK-21
T9 construct: whole, on cells
Experimental: as §1, §2

[15] = molecular target: T10, gH/gL/UL130 co-expressed from MVA in BHK-21 cells (human cytomegalovirus, UniProt P12824 24-743; P16832 31-278; P16772 1-214); assay: intracellular FC, MVA-infected BHK-21
T10 construct: whole, on cells
Experimental: as §1, §2

[16] = molecular target: T11, UL128/UL130 co-expressed from MVA in BHK-21 cells (human cytomegalovirus, UniProt P16837 28-171; P16772 1-214); assay: intracellular FC, MVA-infected BHK-21
T11 construct: whole, on cells
Experimental: as §1, §2

[17] = molecular target: T12, gH/gL/UL128 co-expressed from MVA in BHK-21 cells (human cytomegalovirus, UniProt P12824 24-743; P16832 31-278; P16837 28-171); assay: intracellular FC, MVA-infected BHK-21
T12 construct: whole, on cells
Experimental: as §1, §2

[18] = molecular target: T13, gH expressed from MVA in BHK-21 cells (human cytomegalovirus, UniProt P12824 24-743); assay: intracellular FC, MVA-infected BHK-21
T13 construct: whole, on cells
Experimental: as §1, §2

[19] = molecular target: T14, UL131A expressed from MVA in BHK-21 cells (human cytomegalovirus, UniProt F5HET4 19-129); assay: intracellular FC, MVA-infected BHK-21
T14 construct: whole, on cells
Experimental: as §1, §2

[20] = molecular target: T15, gH/gL co-expressed from MVA in BHK-21 cells (human cytomegalovirus, UniProt P12824 24-743; P16832 31-278); assay: intracellular FC, MVA-infected BHK-21
T15 construct: whole, on cells
Experimental: as §1, §2

[21] = molecular target: T2, gH/gL/UL128/UL130/UL131A pentamer …; assay: FC competition, MVA-PC BHK-21; unlabelled row Ab; competitor: biotinylated 18F10
[22] = molecular target: T2, gH/gL/UL128/UL130/UL131A pentamer …; assay: FC competition, MVA-PC BHK-21; unlabelled row Ab; competitor: biotinylated 1B2
[23] = molecular target: T2, gH/gL/UL128/UL130/UL131A pentamer …; assay: FC competition, MVA-PC BHK-21; unlabelled row Ab; competitor: biotinylated 21F6

| Binder | IC50, neutralization of TB40/E infection of ARPE-19 [3] | IC50, neutralization of TB40/E infection of HUVEC [3] | IC50, neutralization of TB40/E infection of MRC-5 [3] | IC50, neutralization of TR infection of ARPE-19 [4] | IC50, neutralization of TR infection of HUVEC [4] | IC50, neutralization of TR infection of MRC-5 [4] | binding result [7] | binding result [8] | binding result [9] | binding result [10] | binding result [11] | binding result [12] | binding result [13] | binding result [14] | binding result [15] | binding result [16] | binding result [17] | binding result [18] | binding result [19] | binding result [20] | also measured |
| --- | --- | --- | --- | --- | --- | --- | --- | --- | --- | --- | --- | --- | --- | --- | --- | --- | --- | --- | --- | --- | --- |
| B1 | 0.0037 mg/L | 0.006 mg/L | > 25 mg/L | 0.0031 mg/L | 0.0042 mg/L | > 25 mg/L | no binding | no binding | no binding | no binding | no binding | no binding | no binding | no binding | no binding | no binding | no binding | no binding | no binding | no binding | Binding Inhibition (%) [1]: 100%; Binding Inhibition (%) [2]: 0%; IC50, inhibition of TB40/E cell-to-cell spread in ARPE-19 [3]: 15 mg/L; IC50, neutralization of TB40/E infection of CTB [3]: 0.0721 mg/L; IC50, inhibition of TR cell-to-cell spread in ARPE-19 [4]: 17 mg/L; EC50 [5]: 1.1 nM; Binding Inhibition (%) [6]: 0%; Binding Inhibition (%) [21]: 0%; Binding Inhibition (%) [22]: 100%; Binding Inhibition (%) [23]: 0% |
| B2 | 0.0006 mg/L | 0.0005 mg/L | > 25 mg/L | 0.0003 mg/L | 0.0007 mg/L | > 25 mg/L | no binding | no binding | no binding | no binding | no binding | no binding | no binding | no binding | no binding | no binding | no binding | no binding | no binding | no binding | Binding Inhibition (%) [1]: 100%; Binding Inhibition (%) [2]: 0%; IC50, inhibition of TB40/E cell-to-cell spread in ARPE-19 [3]: 1 mg/L; IC50, neutralization of TB40/E infection of CTB [3]: 0.0126 mg/L; IC50, inhibition of TR cell-to-cell spread in ARPE-19 [4]: 1.4 mg/L; EC50 [5]: 0.32 nM; Binding Inhibition (%) [6]: 0%; Binding Inhibition (%) [21]: 0%; Binding Inhibition (%) [22]: 100%; Binding Inhibition (%) [23]: 0% |
| B3 | 0.0802 mg/L | 0.0464 mg/L | > 25 mg/L | 0.0446 mg/L | 0.0102 mg/L | > 25 mg/L | no binding | no binding | no binding | no binding | no binding | no binding | no binding | no binding | no binding | no binding | no binding | no binding | no binding | no binding |  |
